In patent US20220096649A1 (TALLAC THERAPEUTICS, published 2022):

T1: SIRP-α cynomolgus (cynomolgus, UniProt A0A2K5VYQ9 31-148)
T1 construct: Soluble analyte in SPR; also called cynomologous monkey SIRP-α
T1 sequence: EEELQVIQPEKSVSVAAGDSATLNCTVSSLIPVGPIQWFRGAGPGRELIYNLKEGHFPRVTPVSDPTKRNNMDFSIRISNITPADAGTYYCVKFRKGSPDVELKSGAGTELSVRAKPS

T2: SIRP-α mouse BL6 (mouse (BL6), UniProt P97797 32-150, limits assumed)
T2 construct: Soluble analyte in SPR
T2 sequence (looked up): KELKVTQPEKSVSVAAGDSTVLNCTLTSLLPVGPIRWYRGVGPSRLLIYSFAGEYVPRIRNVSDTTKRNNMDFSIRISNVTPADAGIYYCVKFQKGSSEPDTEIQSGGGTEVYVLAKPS


Experiments:
Experiment in all cases: SPR, antibody on GLC chip, SIRP as analyte
SIRP-α human v2 = biological target: T3, SIRP-α human v2 (human, UniProt P78324 31-149, limits assumed)
T3 construct: Soluble analyte in SPR
T3 sequence (P78324 other isoform, or with tags, fused parts or gaps limits assumed): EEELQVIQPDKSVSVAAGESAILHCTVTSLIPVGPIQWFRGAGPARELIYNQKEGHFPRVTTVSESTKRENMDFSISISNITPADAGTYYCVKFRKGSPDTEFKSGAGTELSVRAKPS
Experimental: (§1) The running buffer was PBS pH 7.4 with 0.01% TWEEN-20 (PBST+). All analytes were used at their nominal concentrations as determined by A280 absorbance and using their molar calculated extinction coefficient. Analytes were injected in a “one-shot” kinetic mode as described (see, e.g., Bravman et al., Anal. Biochem. 2006, 358, 281-288).
(§2) For the method using a GLC chip, the analytes were injected and flowed over anti-SIRPα antibodies immobilized (˜1000 RUs) on GLC chips using Proteon Amine Coupling Kit. For the immobilization step, the GLC chip was activated with EDAC/Sulpho-NHS 1:1 (Biorad) diluted 1/100 for 300 s at 25 μL/min. Anti-SIRPα antibodies were diluted to 80 nM concentration in 10 mM sodium acetate buffer pH 4.5 and immobilized to the chip at 30 μL/min for 50 s. Chip was inactivated with ethanolamine for 300 s at 25 μL/min. The analytes (e.g., SIRP-α from different species, SIRP-β, SIRP-γ) were injected in a “one-shot” kinetic mode at nominal concentrations of 100, 33, 11, 3.7, 1.2, and 0 nM. Association times were monitored for 90 s at 100 uL/min, and dissociation times were monitored for 1200 s. The surfaces were regenerated with a 2:1 v/v blend of Pierce IgG elution buffer/4M NaCl.
(§3) Biosensor data were double-referenced by subtracting the interspot data (containing no immobilized protein) from the reaction spot data (immobilized protein) and then subtracting the response of a buffer “blank” analyte injection from that of an analyte injection. Double-referenced data were fit globally to a simple Langmuir model and the KD value was calculated from the ratio of the apparent kinetic rate constants (KD=kd/kₐ).

Human SIRPβ = biological target: T4, Human SIRPβ (human, UniProt O00241 30-148)
T4 construct: Soluble analyte in SPR
T4 sequence (O00241 30-148): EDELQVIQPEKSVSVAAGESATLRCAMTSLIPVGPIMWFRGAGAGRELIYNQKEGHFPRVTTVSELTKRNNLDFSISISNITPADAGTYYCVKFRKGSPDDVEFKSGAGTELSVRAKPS
Experimental: as §1, §2, §3

SIRP-α cynomolgus = biological target: T1, SIRP-α cynomolgus
Experimental: as §1, §2, §3

Human SIRPγ = biological target: T5, Human SIRPγ (human, UniProt Q9P1W8 29-147, limits assumed)
T5 construct: Soluble analyte in SPR
T5 sequence (Q9P1W8 29-147 limits assumed): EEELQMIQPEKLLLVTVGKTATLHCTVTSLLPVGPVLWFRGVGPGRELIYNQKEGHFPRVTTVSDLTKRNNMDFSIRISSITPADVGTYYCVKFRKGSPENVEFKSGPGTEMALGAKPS
Experimental: as §1, §2, §3

SIRP-α mouse BL6 = biological target: T2, SIRP-α mouse BL6
Experimental: as §1, §2, §3

| Binder | Kd (SIRP-α human v2) [nM] | Kd (Human SIRPβ) [nM] | Kd (SIRP-α cynomolgus) [nM] | Kd (Human SIRPγ) [nM] | Kd (SIRP-α mouse BL6) [nM] | binding result (SIRP-α mouse BL6) |
| --- | --- | --- | --- | --- | --- | --- |
| Hum9/AB21_HC_Mutall (antibody, V domains shown, Whole antibody) VH: EVQLVESGGGVVQPGGSLRLSCAASGFTFSSNAMSWVRQAPGKGLEWVAGISAGGSDTYYPASVKGRFTISRDNSKNTLYLQMNSLRAEDTAVYYCARETWNHLFDYWGQGTLVTVSS VL: SYELTQPPSVSVSPGQTARITCSGGAYSSYYYAWYQQKPGQAPVLVIYSDDKRPSGIPERFSGSSSGTTVTLTISGVQAEDEADYYCGGYDQSSYTNPFGGGTKLTVL | 0.12 | 0.057 | 0.22 | 0.035 | – | – |
| Anti-SIRP-α antibody 136, light chain wt, heavy chain Mut (antibody, V domains shown, Whole antibody; Heavy chain mut = D1E, R13Q, E16R, M34V, E43K, L111Q) VH: EVQLVESGGGVVQPGRSLRLSCAASGFTFSSYDVNWVRQAPGKGLEWVSLISGSGEIIYYADSVKGRFTISRDNSKNTLYLQMNSLRAEDTAVYYCAKENNRYRFFDDWGQGTLVTVSS VL: ETVLTQSPGTLTLSPGERATLTCRASQSVYTYLAWYQEKPGQAPRLLIYGASSRATGIPDRFSGSGSGTEFTLTISSLQSEDFAVYYCQQYYDRPPLTFGGGTKVEIK | 1.7 | 3.5 | – | 17 | 23 | – |
| Anti-SIRP-α antibody 136, light chain Mut_S22T, heavy chain Mut (antibody, V domains shown, Whole antibody) VH: EVQLVESGGGVVQPGRSLRLSCAASGFTFSSYDVNWVRQAPGKGLEWVSLISGSGEIIYYADSVKGRFTISRDNSKNTLYLQMNSLRAEDTAVYYCAKENNRYRFFDDWGQGTLVTVSS VL: EIVLTQSPGTLSLSPGERATLTCRASQSVYTYLAWYQQKPGQAPRLLIYGASSRATGIPDRFSGSGSGTEFTLTISSLQSEDFAVYYCQQYYDRPPLTFGGGTKVEIK | 8.3 | – | – | 62 | 13 | – |
| Anti-SIRP-α antibody 136, light chain Mut, heavy chain Mut (antibody, V domains shown, Whole antibody) VH: EVQLVESGGGVVQPGRSLRLSCAASGFTFSSYDVNWVRQAPGKGLEWVSLISGSGEIIYYADSVKGRFTISRDNSKNTLYLQMNSLRAEDTAVYYCAKENNRYRFFDDWGQGTLVTVSS VL: EIVLTQSPGTLSLSPGERATLSCRASQSVYTYLAWYQQKPGQAPRLLIYGASSRATGIPDRFSGSGSGTEFTLTISSLQSEDFAVYYCQQYYDRPPLTFGGGTKVEIK | 20 | – | – | 1.7 | 32 | – |
| Anti-SIRP-α antibody 136, light chain Mut_Q38E, heavy chain Mut (antibody, V domains shown, Whole antibody) VH: EVQLVESGGGVVQPGRSLRLSCAASGFTFSSYDVNWVRQAPGKGLEWVSLISGSGEIIYYADSVKGRFTISRDNSKNTLYLQMNSLRAEDTAVYYCAKENNRYRFFDDWGQGTLVTVSS VL: EIVLTQSPGTLSLSPGERATLSCRASQSVYTYLAWYQEKPGQAPRLLIYGASSRATGIPDRFSGSGSGTEFTLTISSLQSEDFAVYYCQQYYDRPPLTFGGGTKVEIK | 13 | – | – | 19 | 33 | – |
| Anti-SIRP-α antibody 136, light chain Mut, heavy chain wt (antibody, V domains shown, Whole antibody; Light chain mut = T2I, T12S, T22S, E38Q) VH: not shown VL: EIVLTQSPGTLSLSPGERATLSCRASQSVYTYLAWYQQKPGQAPRLLIYGASSRATGIPDRFSGSGSGTEFTLTISSLQSEDFAVYYCQQYYDRPPLTFGGGTKVEIK | 17 | – | – | 20 | 33 | – |
| Anti-SIRP-α antibody 136, light chain Mut_I2T, heavy chain Mut (antibody, V domains shown, Whole antibody) VH: EVQLVESGGGVVQPGRSLRLSCAASGFTFSSYDVNWVRQAPGKGLEWVSLISGSGEIIYYADSVKGRFTISRDNSKNTLYLQMNSLRAEDTAVYYCAKENNRYRFFDDWGQGTLVTVSS VL: ETVLTQSPGTLSLSPGERATLSCRASQSVYTYLAWYQQKPGQAPRLLIYGASSRATGIPDRFSGSGSGTEFTLTISSLQSEDFAVYYCQQYYDRPPLTFGGGTKVEIK | 1.8 | 3.2 | – | 40 | 15 | – |
| Anti-SIRP-α antibody 136, light chain Mut_S12T, heavy chain Mut (antibody, V domains shown, Whole antibody) VH: EVQLVESGGGVVQPGRSLRLSCAASGFTFSSYDVNWVRQAPGKGLEWVSLISGSGEIIYYADSVKGRFTISRDNSKNTLYLQMNSLRAEDTAVYYCAKENNRYRFFDDWGQGTLVTVSS VL: EIVLTQSPGTLTLSPGERATLSCRASQSVYTYLAWYQQKPGQAPRLLIYGASSRATGIPDRFSGSGSGTEFTLTISSLQSEDFAVYYCQQYYDRPPLTFGGGTKVEIK | 11 | – | – | 67 | 16 | – |
| Anti-SIRP-α antibody 136, light chain Mut_I2T, heavy chain Mut_V34M (antibody, V domains shown, Whole antibody) VH: EVQLVESGGGVVQPGRSLRLSCAASGFTFSSYDMNWVRQAPGKGLEWVSLISGSGEIIYYADSVKGRFTISRDNSKNTLYLQMNSLRAEDTAVYYCAKENNRYRFFDDWGQGTLVTVSS VL: ETVLTQSPGTLSLSPGERATLSCRASQSVYTYLAWYQQKPGQAPRLLIYGASSRATGIPDRFSGSGSGTEFTLTISSLQSEDFAVYYCQQYYDRPPLTFGGGTKVEIK | 17 | 2.2 | 2.1 | 34 | 14 | – |
| Anti-SIRP-α antibody 136, light chain wt, heavy chain wt (antibody, V domains shown, Whole antibody) VH: not shown VL: ETVLTQSPGTLTLSPGERATLTCRASQSVYTYLAWYQEKPGQAPRLLIYGASSRATGIPDRFSGSGSGTEFTLTISSLQSEDFAVYYCQQYYDRPPLTFGGGTKVEIK | 1.6 | 4.4 | – | 24 | 13 | – |
| Anti-SIRP-α antibody 119, light chain Mut, heavy chain wt (antibody, V domains shown, Whole antibody; Light chain mut = F21L, R39K, E60A, T76S) VH: EVQLLESGGGVVQPGGSLRLSCAASGFSFSNFAMTWVRQAPGEGLEWVSTIGSGDTYYADSVKGRFTISRDNSKNTLYLQMNSLRAEDTAVYYCAKDSTVSWSGDFFDYWGLGTLVTVSS VL: EIVLTQSPATLSVSPGERATLSCRASQNVKNDLAWYQQKPGQAPRLLIYAARIRETGIPARFSGSGSGTEFTLTISSLQSEDFAVYYCQQYYDWPPFTFGGGTKVEIK | 0.086 | – | 0.14 | 0.23 | – | no binding (tested: 100 nM (highest analyte concentration)) |
| Anti-SIRP-α antibody 119, light chain wt, heavy chain Mut (antibody, V domains shown, Whole antibody; Heavy chain mut = D1E, E43K, L112Q, M34V) VH: EVQLLESGGGVVQPGGSLRLSCAASGFSFSNFAVTWVRQAPGKGLEWVSTIGSGDTYYADSVKGRFTISRDNSKNTLYLQMNSLRAEDTAVYYCAKDSTVSWSGDFFDYWGQGTLVTVSS VL: EIVLTQSPATLSVSPGERATFSCRASQNVKNDLAWYQQRPGQAPRLLIYAARIRETGIPERFSGSGSGTEFTLTITSLQSEDFAVYYCQQYYDWPPFTFGGGTKVEIK | 0.069 | – | 0.16 | – | – | no binding (tested: 100 nM (highest analyte concentration)) |
| Anti-SIRP-α antibody 135, light chain Mut, heavy chain wt (antibody, V domains shown, Whole antibody; Light chain mut = F21L, D60A) VH: DVQLVESGGGVVRPGESLRLSCAASGFSFSIYAMSWVRQAPGEGLEWVSTIGADDTYYADSVKGRFTISRDNSKNTLYLQMNSLRAEDTAVYYCAKDSTVGWSGDFFDYWGLGTLVTVSS VL: EIVLTQSPATLSVSPGERVTLSCRASQNVRSDIAWYQQKPGQAPRLLIYAASSRDTGIPARFSGSGSGTDFTLTISSLQSEDFGVYYCQQYYDWPPFTFGGGTKVEIK | 0.027 | – | 0.1 | 0.52 | – | no binding (tested: 100 nM (highest analyte concentration)) |
| Anti-SIRP-α antibody 135, light chain wt, heavy chain wt (antibody, V domains shown, Whole antibody) VH: DVQLVESGGGVVRPGESLRLSCAASGFSFSIYAMSWVRQAPGEGLEWVSTIGADDTYYADSVKGRFTISRDNSKNTLYLQMNSLRAEDTAVYYCAKDSTVGWSGDFFDYWGLGTLVTVSS VL: EIVLTQSPATLSVSPGERVTFSCRASQNVRSDIAWYQQKPGQAPRLLIYAASSRDTGIPDRFSGSGSGTDFTLTISSLQSEDFGVYYCQQYYDWPPFTFGGGTKVEIK | 0.029 | – | 0.097 | 0.54 | – | no binding (tested: 100 nM (highest analyte concentration)) |
| Anti-SIRP-α antibody 135, light chain wt, heavy chain Mut (antibody, V domains shown, Whole antibody; Heavy chain mut = D1E, R13Q, E16G, M34V, E43K, L112Q) VH: EVQLVESGGGVVQPGGSLRLSCAASGFSFSIYAVSWVRQAPGKGLEWVSTIGADDTYYADSVKGRFTISRDNSKNTLYLQMNSLRAEDTAVYYCAKDSTVGWSGDFFDYWGQGTLVTVSS VL: EIVLTQSPATLSVSPGERVTFSCRASQNVRSDIAWYQQKPGQAPRLLIYAASSRDTGIPDRFSGSGSGTDFTLTISSLQSEDFGVYYCQQYYDWPPFTFGGGTKVEIK | 0.02 | – | 0.13 | 0.78 | – | no binding (tested: 100 nM (highest analyte concentration)) |
